Laboratory results from the Immune Epitope Database (IEDB).

Legend:
HLA-B*53:01 = experiment: IEDB peptide-MHC binding, purified MHC/competitive/fluorescence; ≥ and ≤ were set here for values at or beyond the usual limits of such assays; details: source organism: Human herpesvirus 4 type 2
HLA-A*01:01 = experiment: IEDB peptide-MHC binding, purified MHC/direct/fluorescence; filed as Kd, often an IC50 or EC50 that approximates it; ≥ and ≤ were set here for values at or beyond the usual limits of such assays; details: source organism: Mycobacterium tuberculosis
HLA-A*02:01 [1] = experiment: as above; details: source organism: Mycobacterium tuberculosis
HLA-A*69:01 [2] = experiment: as above; details: source organism: Mycobacterium tuberculosis
HLA-B*08:01 = experiment: as above; details: source organism: Mycobacterium tuberculosis str. Haarlem
HLA-B*15:01 [3] = experiment: as above; details: source organism: Mycobacterium tuberculosis
HLA-B*15:17 [4] = experiment: as above; details: source organism: Mycobacterium tuberculosis
HLA-B*18:01 [5] = experiment: as above; details: source organism: Mycobacterium tuberculosis
HLA-B*27:05 = experiment: as above; details: source organism: Mycobacterium tuberculosis
HLA-B*40:01 = experiment: as above; details: source organism: Mycobacterium tuberculosis
HLA-B*46:01 [6] = experiment: as above; details: source organism: Mycobacterium tuberculosis
HLA-B*48:01 = experiment: as above; details: source organism: Mycobacterium tuberculosis
HLA-B*51:01 [7] = experiment: as above; details: source organism: Mycobacterium tuberculosis
HLA-B*57:01 [8] = experiment: as above; details: source organism: Mycobacterium tuberculosis
HLA-B*58:01 = experiment: as above; details: source organism: Mycobacterium tuberculosis
HLA-A*03:01 = experiment: IEDB peptide-MHC binding, purified MHC/competitive/fluorescence; filed as Kd, often an IC50 or EC50 that approximates it; ≥ and ≤ were set here for values at or beyond the usual limits of such assays
HLA-A*11:01 = experiment: as above; details: source organism: Mycobacterium leprae
HLA-A*31:01 = experiment: as above; details: source organism: Mycobacterium leprae
HLA-B*15:09 = experiment: as above; details: source organism: Mycobacterium leprae
HLA-B*39:01 = experiment: as above
HLA-A*24:02 = experiment: as above
HLA-C*14:02 = experiment: IEDB peptide-MHC binding, purified MHC/direct/fluorescence; filed as Kd, often an IC50 or EC50 that approximates it; ≥ and ≤ were set here for values at or beyond the usual limits of such assays
HLA-A*02:01 [9] = experiment: IEDB peptide-MHC binding, purified MHC/competitive/fluorescence; filed as Kd, often an IC50 or EC50 that approximates it; ≥ and ≤ were set here for values at or beyond the usual limits of such assays
HLA-A*02:03 = experiment: as above
HLA-A*02:11 = experiment: as above; details: source organism: Vibrio vulnificus
HLA-A*02:12 = experiment: as above
HLA-A*02:16 = experiment: as above; details: source organism: Vibrio vulnificus
HLA-A*02:19 = experiment: as above
HLA-A*23:01 = experiment: as above
HLA-A*24:03 = experiment: as above
HLA-A*26:01 = experiment: as above
HLA-A*29:02 = experiment: as above
HLA-A*68:02 = experiment: as above; details: source organism: Vibrio vulnificus
HLA-A*69:01 [10] = experiment: as above; details: source organism: Vibrio vulnificus
HLA-B*15:01 [11] = experiment: as above
HLA-B*15:17 [12] = experiment: as above; details: source organism: Vibrio vulnificus
HLA-B*18:01 [13] = experiment: as above
HLA-B*27:03 = experiment: as above
HLA-B*46:01 [14] = experiment: as above
HLA-B*51:01 [15] = experiment: as above
HLA-B*57:01 [16] = experiment: as above
HLA-C*06:02 = experiment: IEDB peptide-MHC binding, purified MHC/direct/fluorescence; filed as Kd, often an IC50 or EC50 that approximates it; ≥ and ≤ were set here for values at or beyond the usual limits of such assays; details: source organism: Cryptosporidium parvum Iowa II
HLA-C*15:02 = experiment: as above; details: source organism: Cryptosporidium parvum Iowa II
[17] = source organism: Mycobacterium leprae
[18] = source organism: Bacillus thuringiensis serovar tochigiensis BGSC 4Y1
[19] = source organism: Vibrio vulnificus
[20] = source organism: Cryptosporidium parvum Iowa II
[21] = source organism: Vibrio vulnificus YJ016

TAYCPLQHW
IC50 (HLA-B*53:01): 0.0326 µM

YPACEAIGL
Kd (HLA-A*01:01): ≥ 20 µM
Kd (HLA-A*02:01 [1]): ≥ 20 µM
Kd (HLA-A*69:01 [2]): 0.0905 µM
Kd (HLA-B*08:01): ≥ 20 µM
Kd (HLA-B*15:01 [3]): ≥ 20 µM
Kd (HLA-B*15:17 [4]): ≥ 20 µM
Kd (HLA-B*18:01 [5]): 0.166 µM
Kd (HLA-B*27:05): ≥ 20 µM
Kd (HLA-B*40:01): ≥ 20 µM
Kd (HLA-B*46:01 [6]): ≥ 20 µM
Kd (HLA-B*48:01): ≥ 20 µM
Kd (HLA-B*51:01 [7]): ≥ 20 µM
Kd (HLA-B*57:01 [8]): ≥ 20 µM
Kd (HLA-B*58:01): ≥ 20 µM
Kd (HLA-A*03:01; [17]): ≥ 20 µM
Kd (HLA-A*11:01): 0.854 µM
Kd (HLA-A*31:01): ≥ 20 µM
Kd (HLA-B*15:09): 0.526 µM
Kd (HLA-B*39:01; [17]): 0.031 µM

IYAAISYMI
Kd (HLA-A*24:02; source organism: Salmonella enterica subsp. enterica serovar Typhi): ≤ 0.0001 µM

KYAKFFQNF
Kd (HLA-C*14:02; [18]): 0.428 µM
Kd (HLA-A*24:02; [18]): ≤ 0.0001 µM

SFYKNLIW
Kd (HLA-A*24:02; source organism: Influenza A virus (A/swine/Korea/Hongsong2/2004(H1N2))): 0.138 µM

DEWECTRDD
Kd (HLA-A*02:01 [9]; [19]): ≥ 20 µM
Kd (HLA-A*02:03; [19]): ≥ 20 µM
Kd (HLA-A*02:11): ≥ 20 µM
Kd (HLA-A*02:12; [19]): ≥ 20 µM
Kd (HLA-A*02:16): ≥ 20 µM
Kd (HLA-A*02:19; [19]): ≥ 20 µM
Kd (HLA-A*03:01; [19]): ≥ 20 µM
Kd (HLA-A*23:01; [19]): ≥ 20 µM
Kd (HLA-A*24:03; [19]): ≥ 20 µM
Kd (HLA-A*26:01; [19]): ≥ 20 µM
Kd (HLA-A*29:02; [19]): ≥ 20 µM
Kd (HLA-A*68:02): ≥ 20 µM
Kd (HLA-A*69:01 [10]): ≥ 20 µM
Kd (HLA-B*15:01 [11]; [19]): ≥ 20 µM
Kd (HLA-B*15:17 [12]): ≥ 20 µM
Kd (HLA-B*18:01 [13]; [19]): 0.0594 µM
Kd (HLA-B*27:03; [19]): ≥ 20 µM
Kd (HLA-B*39:01; [19]): ≥ 20 µM
Kd (HLA-B*46:01 [14]; [19]): ≥ 20 µM
Kd (HLA-B*51:01 [15]; [19]): ≥ 20 µM
Kd (HLA-B*57:01 [16]; [19]): ≥ 20 µM

SFLHWFHHL
Kd (HLA-C*06:02): ≥ 20 µM
Kd (HLA-C*14:02; [20]): 0.111 µM
Kd (HLA-C*15:02): ≥ 20 µM
Kd (HLA-A*23:01; [20]): ≤ 0.0001 µM

LTDEQKNAV
Kd (HLA-A*02:01 [9]; [21]): ≥ 20 µM
Kd (HLA-A*02:03; [21]): ≥ 20 µM
Kd (HLA-A*02:12; [21]): 0.856 µM
Kd (HLA-A*02:19; [21]): ≥ 20 µM
Kd (HLA-A*03:01; [21]): ≥ 20 µM
Kd (HLA-A*23:01; [21]): ≥ 20 µM
Kd (HLA-A*24:03; [21]): ≥ 20 µM
Kd (HLA-A*26:01; [21]): ≥ 20 µM
Kd (HLA-A*29:02; [21]): ≥ 20 µM
Kd (HLA-B*15:01 [11]; [21]): ≥ 20 µM
Kd (HLA-B*18:01 [13]; [21]): ≥ 20 µM
Kd (HLA-B*27:03; [21]): ≥ 20 µM
Kd (HLA-B*39:01; [21]): ≥ 20 µM
Kd (HLA-B*46:01 [14]; [21]): ≥ 20 µM
Kd (HLA-B*51:01 [15]; [21]): ≥ 20 µM
Kd (HLA-B*57:01 [16]; [21]): ≥ 20 µM
